According to PMC10384113, “Structural and Functional Characterization of Drosophila melanogaster α-Amylase” (Molecules, 2023):
Each block holds one compound with its values, some of them ahead of it.

What was measured:
[1] = target: T1, DMA (Drosophila melanogaster α-amylase) (Drosophila melanogaster, UniProt P08144); test: residual activity on starch after inhibitor preincubation; assay type: biochemical; settings: native DMA, Pichia-produced; inhibitor 1-50 µM, 20 mM HEPES pH 7.5, 20 mM NaCl, 1 mM CaCl2, 25 °C
T1 construct: gene Amy-p; mature enzyme of 476 residues in crystal; recombinant, amy-p in pET22b, E. coli BL21 (kinetics, crystals); glycogen-purified; no tag mentioned

[2] = target: Drosophila melanogaster α-amylase (Drosophila melanogaster) (UniProt P08144)
Chain of Drosophila melanogaster α-amylase (Drosophila melanogaster) (P08144 other isoform, or with tags, fused parts or gaps): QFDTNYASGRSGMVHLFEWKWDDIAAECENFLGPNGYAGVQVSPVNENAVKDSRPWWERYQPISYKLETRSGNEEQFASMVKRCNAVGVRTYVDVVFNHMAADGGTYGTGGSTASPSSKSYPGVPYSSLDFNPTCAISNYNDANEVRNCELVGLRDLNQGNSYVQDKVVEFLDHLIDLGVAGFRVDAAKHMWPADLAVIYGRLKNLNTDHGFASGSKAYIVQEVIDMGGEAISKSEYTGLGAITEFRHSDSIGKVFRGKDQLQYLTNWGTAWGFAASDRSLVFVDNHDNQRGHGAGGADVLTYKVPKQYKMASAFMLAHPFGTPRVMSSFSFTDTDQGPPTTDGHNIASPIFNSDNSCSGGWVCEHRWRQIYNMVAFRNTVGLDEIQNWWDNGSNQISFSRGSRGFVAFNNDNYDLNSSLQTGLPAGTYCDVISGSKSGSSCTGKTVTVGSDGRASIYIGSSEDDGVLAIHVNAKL

T1 sequence (P08144 with tags, fused parts or gaps): as the sequence (P08144 other isoform, or with tags, fused parts or gaps) above

Compound: C[C@H]1O[C@H](O[C@H]2[C@H](O)[C@@H](O)[C@@H](O[C@H]3[C@H](O)[C@@H](O)C(O)O[C@@H]3CO)O[C@@H]2CO)[C@H](O)[C@@H](O)[C@@H]1N[C@H]1C=C(CO)[C@@H](O)[C@H](O)[C@H]1O (stereo partly shown) [acarbose]
- residual activity (%) [1]: Residual activity of (a) native DMA after treatment with proteinaceous inhibitors and acarbose

- residual α-amylase activity of DMA after 20 min incubation with the inhibitor (1 to 50 µM) at 25 °C, pH 7.5; value at 10 μM WI-1 [2]: 6%
Compound: WI-1 (tetrameric form), wheat α-amylase inhibitor from Triticum aestivum seeds (complex)

- residual α-amylase activity of DMA after 20 min incubation with the inhibitor (1 to 50 µM) at 25 °C, pH 7.5; value at 10 μM WI-3 [2]: 0.8%
Compound: WI-3 (monomeric form), wheat α-amylase inhibitor from Triticum aestivum seeds (natural protein)

- residual α-amylase activity of DMA after 20 min incubation with the inhibitor (1 to 50 µM) at 25 °C, pH 7.5; value at the highest concentration (50 μM) of α-AI [2]: 38%
Compound: α-AI, α-amylase inhibitor from seeds of the common bean Phaseolus vulgaris (natural protein)
